± gives the standard deviation.
Assay: collision cross section of modified peptide (TIMS, N2, iRT-aligned); higher = larger / more extended gas-phase ion
Summary of the method: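 Values are averages of 1–3 technical replicates of the most abundant feature for each charge state. Collision cross section was obtained from the Mason-Schamp equation after 1/K0 calibration with three reference ions and run-wise alignment to the median iRT peptide deviation. Synthetic peptide pools (iRT standard spiked 1:40) were separated on a 120-min nanoflow C18 gradient at 60 °C, analysed on a timsTOF Pro/HT (dda-PASEF, nitrogen, ~2.4 mbar) and identified with MaxQuant.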

[1] = charge state: 2, modification: Trimethyl (K)
[2] = charge state: 3, modification: Trimethyl (K)
[3] = charge state: 2, modification: Formyl
[4] = charge state: 2, modification: Malonyl
[5] = charge state: 2, modification: Biotin
[6] = charge state: 2, modification: Acetyl (K)
[7] = charge state: 2, modification: Nitro (Y)
[8] = charge state: 3, modification: Nitro (Y)
[9] = charge state: 2, modification: Succinyl
[10] = charge state: 2, modification: Dimethyl (K)
[11] = charge state: 3, modification: Dimethyl (K)
[12] = charge state: 3, modification: Citrullination (R)
[13] = charge state: 3, modification: Formyl
[14] = charge state: 2, modification: Methyl (R)
[15] = charge state: 3, modification: Methyl (R)
[16] = charge state: 2, modification: hydroxyisobutyryl
[17] = charge state: 3, modification: hydroxyisobutyryl
[18] = charge state: 3, modification: Acetyl (K)
[19] = charge state: 3, modification: Butyryl
[20] = charge state: 2, modification: Propionyl
[21] = charge state: 2, modification: Glutarylation
[22] = charge state: 3, modification: Glutarylation
[23] = charge state: 3, modification: Biotin
[24] = charge state: 3, modification: Succinyl
[25] = charge state: 2, modification: Methyl (K)
[26] = charge state: 3, modification: Methyl (K)
[27] = charge state: 2, modification: Butyryl
[28] = charge state: 3, modification: GlyGly (K)

## IQTKAGEATVK [_IQTK(Trimethyl (K))AGEATVK_]
[1]
  collision cross section: 376.56 ± 1.1 Å²
[2]
  collision cross section: 436.23 Å²

## LLEQKTQESQK [_LLEQK(Formyl)TQESQK_]
[3]
  collision cross section: 386.78 ± 0.55 Å²

## ILDLKTGTVK [_ILDLK(Formyl)TGTVK_]
[3]
  collision cross section: 351.57 ± 1 Å²

## VPGALAAAKAAK [_VP(Hydroxyproline)GALAAAKAAK_]
Charge state: 2, modification: Hydroxyproline
  collision cross section: 368.8 ± 0.56 Å²
Charge state: 3, modification: Hydroxyproline
  collision cross section: 444.57 ± 2.8 Å²

## LTSLNVKYNNDK [_LTSLNVK(Malonyl)YNNDK_]
[4]
  collision cross section: 402.04 ± 0.61 Å²

## INNFSADIKDSK [_INNFSADIK(Biotin)DSK_]
[5]
  collision cross section: 419.19 Å²

## ALLQAKASGK [_ALLQAK(Acetyl (K))ASGK_]
[6]
  collision cross section: 343.77 ± 0.2 Å²

## FHYQDQEFLK [_FHY(Nitro (Y))QDQEFLK_]
[7]
  collision cross section: 402.47 ± 0.18 Å²
[8]
  collision cross section: 452.15 ± 1.1 Å²

## YIEIYVQKVNPSR [_YIEIYVQK(Succinyl)VNPSR_]
[9]
  collision cross section: 436.15 Å²

## SPDEAYAIAKK [_SPDEAYAIAK(Trimethyl (K))K_]
[1]
  collision cross section: 381.12 ± 1.2 Å²
[2]
  collision cross section: 449.09 Å²

## LTSLNVKYNNDK [_LTSLNVK(Dimethyl (K))YNNDK_]
[10]
  collision cross section: 409.23 ± 0.76 Å²
[11]
  collision cross section: 464.81 ± 1.6 Å²

## TPSSFRQPFTPTSR [_TPSSFR(Citrullination (R))QPFTPTSR_]
[12]
  collision cross section: 499.72 Å²

## DAEAAEATAEGALKAEK [_DAEAAEATAEGALK(Formyl)AEK_]
[3]
  collision cross section: 428.82 ± 0.71 Å²
[13]
  collision cross section: 534.4 ± 0.57 Å²

## PLPVALQTRLAK [_PLPVALQTR(Methyl (R))LAK_]
[14]
  collision cross section: 400.79 ± 0.32 Å²
[15]
  collision cross section: 474 ± 2.6 Å²

## TFGKAAGPSLSHTSGGTQSK [_TFGK(hydroxyisobutyryl)AAGPSLSHTSGGTQSK_]
[16]
  collision cross section: 498.68 ± 0.33 Å²
[17]
  collision cross section: 512.39 ± 2.8 Å²

## VGVEVPDVNIEGPEGKLK [_VGVEVPDVNIEGPEGK(Dimethyl (K))LK_]
[10]
  collision cross section: 456.47 ± 2.5 Å²
[11]
  collision cross section: 540.33 ± 0.77 Å²

## SLGEPAAGEGSAKR [_SLGEPAAGEGSAK(Acetyl (K))R_]
[6]
  collision cross section: 382.38 ± 0.43 Å²
[18]
  collision cross section: 484.93 ± 0.63 Å²

## LQEKVESAQSEQK [_LQEK(Formyl)VESAQSEQK_]
[3]
  collision cross section: 410.52 ± 1.2 Å²
[13]
  collision cross section: 496.47 ± 0.53 Å²

## ASEALLKQLK [_ASEALLK(Succinyl)QLK_]
[9]
  collision cross section: 374.59 ± 0.24 Å²

## SPPLPEHQKIPCNSAEPK [_SPPLPEHQK(Butyryl)IPCNSAEPK_]
[19]
  collision cross section: 542.36 ± 2 Å²

## DHLSDKESK [_DHLSDK(Acetyl (K))ESK_]
[6]
  collision cross section: 350.98 ± 1.6 Å²

## DHLSDKESK [_DHLSDK(Formyl)ESK_]
[3]
  collision cross section: 345.83 ± 0.37 Å²

## GSLEKGSPEDK [_GSLEK(hydroxyisobutyryl)GSPEDK_]
[16]
  collision cross section: 376.24 ± 0.91 Å²

## IQTKAGEATVK [_IQTK(Propionyl)AGEATVK_]
[20]
  collision cross section: 369.17 ± 0.33 Å²

## YEEIVKEVSTYIK [_YEEIVK(Trimethyl (K))EVSTYIK_]
[1]
  collision cross section: 455.74 ± 0.69 Å²
[2]
  collision cross section: 498.32 ± 1.1 Å²

## GGGGGRGGLHDFR [_GGGGGR(Methyl (R))GGLHDFR_]
[15]
  collision cross section: 457.91 ± 1.5 Å²

## LTSLNVKYNNDK [_LTSLNVK(Acetyl (K))YNNDK_]
[6]
  collision cross section: 407.77 ± 1 Å²

## IQQELQTAKK [_IQQELQTAK(Propionyl)K_]
[20]
  collision cross section: 379.28 ± 0.65 Å²

## DAIHFYNKSLAEHR [_DAIHFYNK(Gluratylation)SLAEHR_]
[21]
  collision cross section: 458.31 Å²
[22]
  collision cross section: 515.3 ± 0.96 Å²

## VDIDAPDVSIEGPDAKLK [_VDIDAPDVSIEGPDAK(Succinyl)LK_]
[9]
  collision cross section: 469.67 ± 0.79 Å²

## ASDTSSETVFGKR [_ASDTSSETVFGK(Formyl)R_]
[3]
  collision cross section: 390.61 ± 0.41 Å²

## DESFLGKLGGTLAR [_DESFLGK(Biotin)LGGTLAR_]
[5]
  collision cross section: 424.81 Å²
[23]
  collision cross section: 506.47 Å²

## YEQEHAAIQDKLFQVAK [_YEQEHAAIQDK(Butyryl)LFQVAK_]
[19]
  collision cross section: 517.33 ± 1 Å²

## DSSPTTNSKLSALQR [_DSSPTTNSK(Succinyl)LSALQR_]
[9]
  collision cross section: 428.81 ± 1.1 Å²
[24]
  collision cross section: 496.14 ± 4.3 Å²

## LDHLAEKFR [_LDHLAEK(Biotin)FR_]
[23]
  collision cross section: 452.58 Å²

## DASTLQSQKAEGTGDAK [_DASTLQSQK(Crotonyl)AEGTGDAK_]
Charge state: 2, modification: Crotonyl
  collision cross section: 438.12 ± 0.54 Å²
Charge state: 3, modification: Crotonyl
  collision cross section: 513.07 ± 2.8 Å²

## VSFLSALEEYTK [_VSFLSALEEY(Nitro (Y))TK_]
[7]
  collision cross section: 400.94 ± 0.73 Å²

## FDDTNPEKEEAK [_FDDTNPEK(Propionyl)EEAK_]
[20]
  collision cross section: 396.96 ± 0.65 Å²

## IQQELQTAKK [_IQQELQTAK(Gluratylation)K_]
[21]
  collision cross section: 388.2 ± 0.52 Å²
[22]
  collision cross section: 444.75 Å²

## PSVSTKLISK [_PSVSTK(Methyl (K))LISK_]
[25]
  collision cross section: 356.57 ± 0.35 Å²
[26]
  collision cross section: 424.71 ± 5.3 Å²

## SPDEAYAIAKK [_SPDEAYAIAK(hydroxyisobutyryl)K_]
[16]
  collision cross section: 377.18 ± 1.4 Å²
[17]
  collision cross section: 453.4 ± 3.9 Å²

## ITGKNQVTATK [_ITGK(Biotin)NQVTATK_]
[5]
  collision cross section: 389.13 ± 1.7 Å²

## ITESVAETAQTIKK [_ITESVAETAQTIK(Propionyl)K_]
[20]
  collision cross section: 421.06 ± 1.1 Å²
Charge state: 3, modification: Propionyl
  collision cross section: 515.07 Å²

## SLKLNTAEDAK [_SLK(Butyryl)LNTAEDAK_]
[27]
  collision cross section: 378.05 ± 1.5 Å²

## GSYLGGYSAGRGIYSR [_GSYLGGYSAGR(Methyl (R))GIYSR_]
[15]
  collision cross section: 481.98 Å²

## AGPNASIISLKSDK [_AGPNASIISLK(hydroxyisobutyryl)SDK_]
[16]
  collision cross section: 415.63 ± 0.53 Å²

## TTEETSKPK [_TTEETSK(Gluratylation)PK_]
[21]
  collision cross section: 352.76 ± 0.56 Å²

## GTITVSAQELKDNR [_GTITVSAQELK(Propionyl)DNR_]
[20]
  collision cross section: 415.55 Å²

## YEQEHAAIQDKLFQVAK [_YEQEHAAIQDK(GlyGly (K))LFQVAK_]
[28]
  collision cross section: 562.29 ± 1.2 Å²

## GADFLVTEVENGGSLGSKK [_GADFLVTEVENGGSLGSK(Butyryl)K_]
[27]
  collision cross section: 476.08 ± 1.1 Å²
[19]
  collision cross section: 551.35 Å²

## SKLLFSNTAAQK [_SK(Methyl (K))LLFSNTAAQK_]
[25]
  collision cross section: 387.94 ± 0.83 Å²
[26]
  collision cross section: 461.44 ± 4.6 Å²

## ANEKTESSSAQQVAVSR [_ANEK(Biotin)TESSSAQQVAVSR_]
[5]
  collision cross section: 464.95 ± 0.23 Å²
[23]
  collision cross section: 569.61 ± 0.95 Å²

## VYIASSSGSTAIKK [_VYIASSSGSTAIK(Formyl)K_]
[3]
  collision cross section: 408.95 ± 1.8 Å²
[13]
  collision cross section: 497.96 ± 1.5 Å²

## LQEKVESAQSEQK [_LQEK(Dimethyl (K))VESAQSEQK_]
[10]
  collision cross section: 412.95 ± 1.6 Å²
[11]
  collision cross section: 455.71 ± 2.1 Å²

## GEVGAGAGPGAQAGPSAKR [_GEVGAGAGPGAQAGPSAK(Gluratylation)R_]
[21]
  collision cross section: 425.64 ± 1.1 Å²
[22]
  collision cross section: 490.81 ± 0.95 Å²

## TLDEILQEKK [_TLDEILQEK(Acetyl (K))K_]
[6]
  collision cross section: 377 ± 0.3 Å²
[18]
  collision cross section: 448.44 Å²

## LEEVTGKLQVAR [_LEEVTGK(GlyGly (K))LQVAR_]
Charge state: 2, modification: GlyGly (K)
  collision cross section: 407.08 ± 0.86 Å²
[28]
  collision cross section: 463.74 ± 1.1 Å²

## DVNAAIAAIKTK [_DVNAAIAAIK(Succinyl)TK_]
[9]
  collision cross section: 407.52 ± 0.54 Å²
[24]
  collision cross section: 461.32 Å²

## IQTKAGEATVK [_IQTK(Malonyl)AGEATVK_]
[4]
  collision cross section: 364.75 ± 0.62 Å²

## VYSGHQGR [_VY(Nitro (Y))SGHQGR_]
[7]
  collision cross section: 327.94 ± 0.59 Å²
[8]
  collision cross section: 418.62 ± 1.2 Å²

## VLDSGAPIKIPVGPETLGR [_VLDSGAPIK(Gluratylation)IPVGPETLGR_]
[21]
  collision cross section: 465.83 ± 1.5 Å²
[22]
  collision cross section: 505.05 ± 1 Å²

## TQAYQDQKPGTSGLR [_TQAYQDQK(Gluratylation)PGTSGLR_]
[21]
  collision cross section: 436.36 ± 1.1 Å²
[22]
  collision cross section: 483.65 ± 1 Å²

## YRGDYDR [_YR(Methyl (R))GDYDR_]
[14]
  collision cross section: 328.99 ± 0.25 Å²
[15]
  collision cross section: 408.46 ± 0.36 Å²

## FSAYIKNSNPALNDNLEK [_FSAYIK(Acetyl (K))NSNPALNDNLEK_]
[6]
  collision cross section: 479.82 ± 3 Å²
[18]
  collision cross section: 541.74 Å²

## VGVEVPDVNIEGPEGKLK [_VGVEVPDVNIEGPEGK(Succinyl)LK_]
[9]
  collision cross section: 461.15 ± 2.6 Å²
[24]
  collision cross section: 499.18 Å²

## ISALQGKLSK [_ISALQGK(Succinyl)LSK_]
[9]
  collision cross section: 354.02 ± 1.3 Å²

## LLRGVGGSHGR [_LLR(Citrullination (R))GVGGSHGR_]
Charge state: 2, modification: Citrullination (R)
  collision cross section: 372.77 ± 0.65 Å²
[12]
  collision cross section: 442.38 ± 1.8 Å²

## LLEQKTQESQK [_LLEQK(Acetyl (K))TQESQK_]
[6]
  collision cross section: 392.69 ± 0.79 Å²

From the supplement of paper PMC10598134
